Reference: the domain aggregation screens of Martell et al. (2025)

Experiment: soluble fraction after stress (log2 fold change); higher = more stays soluble; pooled small domains, quantitative proteomics
Details: stress: 75 degC
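Also: 20 min heating vs room temperature control held 20 min.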

Row | Sequence | soluble fraction (log2)
1 | HMQNNITISKEIELRTGPDDTYPTLKKVTAGDNVEMLSKSDTWYEIKTNDSFVGWVPGWSIL | -0.0886
2 | HMGLLVPELTAEENVSLAAMIAGVPRQQARSISADLLNRLGLGQMLDRRMGEMSGGQAQRVAIAPIYGKF | -0.408
3 | HMAQPIPSGADIRAAREAAGMTLRRFAEYIAGPDFSTWSRYETGKPIRVKNISPEVWQRVRKFIAQNKG | -0.33
4 | HMRAPIGFRISNRRKSLKISQVALARLVGISPSYLNLIENNKRDVGGALLQRVALHLNIDIDDL | -3.13
5 | HMTGGLLVHVAGAVGAPGVVSLPEGARVVDAIEAAGGAREDADTDQLNLARPVVDGEQVRVPVVGEVLE | -0.00946
6 | HMAENTKKWDETGRRYRSYIKLEKRLSENTVESYMRDYMQFAHFILRQWDVAPHKVEPQMVERYMAWLYER | -0.795
7 | HMTSNSLNLKDEISAFLTKNAGISYSAERIAHALNMDNADQFTPIIQTLAQLEREKKVRVTDKGEFEAVIK | 0.02
8 | HMEPERRHLEVPAEAEGERIDRFLASQLENLSRSRIQALIKAGYVRNRRGTIEDPGLRVKPGDAFVVDLPP | 0.354
9 | HMTEFFNMQDMFYFKLTGDVTSKERRQSLGKILGIGYGNAAQMVSRLNNYGITKEEFTNAINEIEKQMEAG | -0.715
10 | HMPTMTDIPIKIIRSRRRTLAIEVREGGEVIVRAPLYSRKAEIDAFVKAHENWIITKYNLMITKQN | -3.51
11 | HMTLGENLQNLRKEAGLSQEQVAQQLFVSRQTVSKWENNLAEPGVENLKALARLYGVTLDRLVGM | -0.223
12 | HMAQLTPREREVLVLIAEGKSNKEIADQLNIGVRTIETHRERIMRRLNIHSVAGLTKYAIANGLVTL | -0.36
13 | HMVVANTAIKSELQNIVANENKQAPLSDQKIVDQLKQAGFDISRRTVVKYRDALGIPTSRNRKR | -0.28
14 | HMSENKIMEIVQDLAREKSVILISHRLANVTAADKILYMEQGKIAESGTHEQLMAQNKAYAALFNKQQEL | -0.0206
15 | HMVLALRGIVQGGAEPLVILSDGRTSQSLAVGERFLAYEVVEIGRTGVRLRGPEGEIWLAMASF | -1.2
16 | HMDENDPYEILEIDRLASDDQVKAKYRALIRENHPDVLMAKGVPQEFIDLANRKMAVINAAYDRIEKEREF | 0.122
17 | HMSMNGNMIHATVIWKGRYFLVKMFFPQLTKPKRAEVQAQIEKAYPGSRVASYHITDYKPGEQFLHV | -1.84
18 | HMGWVMLVIMSRGASEAQINAVVEKIRAAGLTEHLSKGIERTIIGAIGEERKLEPEVFELLPGVEQALHIV | -2.2
19 | HMTRIHEEVVNQVHDLVKEGRFKAGDQLPSERELAEIFKVSRTSVREALRALETQGLIISRTGMGNFIAD | -0.249
20 | HMKDVVAPMSGRVVRLMVAAGDEVVKRQALVVVEAMKMENVLTAPKEGRIKKVPVREGMTVEVGQTLVSFE | -1.88
21 | HMGLDQNTLDRVDDINDTLATGIEIGPETRGTIEELNETLANGLKAGFDEETLARVDELLRVVEDGLK | 0.0586
22 | HMSQDINVFIKTNPENATIIWDGESKGTNGIFKSNAGAHRLRIEMQGYESIDQDIQVSDKQFSFEYNLKKE | 0.138
23 | HMNVSVSITKELQVYINDERISSSALESTLKSKLAGIENPTIILRAEEGVPIEKAVNVMDIANRNRYKIVL | -1.32
24 | HMQSDQLSDREREILRLIGSGRTNQEISQELQVSGSTVRTHLQHILDKLGLENRNQAVLYAIRIGLAAPP | -0.163
25 | HMQNYNLTQQEKKVLQLLVSGKSYKMIAAELNVAFDTVKSHITNIYSKLHVHSGTEAVSVAIRDKI | -1.46
26 | HMVGVDMTVKEEVGKEGVTFTDLRPAGKVEIGNDIYDAVSNTGAFIQKGEKVKIIKYQAGQVYVEKLV | 0.00838
27 | HMIKYTIEELGELTGFTRRTIRYYVQEGLIDPPAGRGRGGFYYDSHVQQLLRIKSFQEKGIGITAMVSLM | -2.32
28 | HMSSLKKISIDELSPGMYVHSIVEQKGSVKIKSQGKVLKQAVVDALRKRGVKTLLIDLSKQFNPETGEP | -0.985
29 | HMKREWKDDDPTVPAGWKVAWTTTSDNRAKIAFMSPDKKIFHSRKSALQHMLAAGTYAQSDIEKMTKGL | -0.315
30 | HMRVGADLTQRERELLALMAQGMSNQEIAKRLEIAVPTVKFHITNILDKLQVGNRTEAVIAALEHKLVP | -0.704
